Test results published in PMC8294330, “A cooperative PNPase-Hfq-RNA carrier complex facilitates bacterial riboregulation” (Molecular Cell, 2021).

Target: the molecule itself
Test: cryo-EM structure; apo PNPase and PNPase with 3'ETSleuZ RNA; 8-12 uM in 20 mM Tris-HCl pH 8, 2.5 mM MgCl2, 150 mM KCl, 1 mM TCEP, 8 mM CHAPSO added before blotting

B1: Escherichia coli polynucleotide phosphorylase (PNPase), wild type (enzyme, UniProt P05055 1-711, looked up)
chain: MLNPIVRKFQYGQHTVTLETGMMARQATAAVMVSMDDTAVFVTVVGQKKAKPGQDFFPLTVNYQERTYAAGRIPGSFFRREGRPSEGETLIARLIDRPIRPLFPEGFVNEVQVIATVVSVNPQVNPDIVAMIGASAALSLSGIPFNGPIGAARVGYINDQYVLNPTQDELKESKLDLVVAGTEAAVLMVESEAQLLSEDQMLGAVVFGHEQQQVVIQNINELVKEAGKPRWDWQPEPVNEALNARVAALAEARLSDAYRITDKQERYAQVDVIKSETIATLLAEDETLDENELGEILHAIEKNVVRSRVLAGEPRIDGREKDMIRGLDVRTGVLPRTHGSALFTRGETQALVTATLGTARDAQVLDELMGERTDTFLFHYNFPPYSVGETGMVGSPKRREIGHGRLAKRGVLAVMPDMDKFPYTVRVVSEITESNGSSSMASVCGASLALMDAGVPIKAAVAGIAMGLVKEGDNYVVLSDILGDEDHLGDMDFKVAGSRDGISALQMDIKIEGITKEIMQVALNQAKGARLHILGVMEQAINAPRGDISEFAPRIHTIKINPDKIKDVIGKGGSVIRALTEETGTTIEIEDDGTVKIAATDGEKAKHAIRRIEEITAEIEVGRVYTGKVTRIVDFGAFVAIGGGKEGLVHISQIADKRVEKVTDYLQMGQEVPVKVLEVDRQGRIRLSIKEATEQSQPAAAPEAPAAEQGE
notes: polynucleotide phosphorylase (PNPase), Escherichia coli, full-length enzyme with RNase PH core, KH and S1 domains; Preparation follows Bandyra et al., 2016; no tag is named for the purified protein; also called wild-type PNPase; PNPase WT
stoichiometry N: 3
